Test results published in publication PMC4530576.
Where two headings read alike, the source gives them in different places.

T1: Spen RRM domains (Spen RRMs) (UniProt Q96T58 335-620)
T1 sequence: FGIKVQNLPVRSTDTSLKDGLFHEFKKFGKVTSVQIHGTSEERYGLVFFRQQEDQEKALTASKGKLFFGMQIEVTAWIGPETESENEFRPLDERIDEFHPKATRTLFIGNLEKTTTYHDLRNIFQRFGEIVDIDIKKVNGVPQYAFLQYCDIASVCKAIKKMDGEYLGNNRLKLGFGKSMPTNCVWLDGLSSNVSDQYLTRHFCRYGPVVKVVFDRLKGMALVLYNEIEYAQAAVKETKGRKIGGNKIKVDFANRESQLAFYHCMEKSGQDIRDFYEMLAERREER

B1: XCR-XC dimer (Xist A-repeat dimer), synthetic (structured_RNA)
RNA: UUGCCCAUCGGGGCCUCGGAUACCUGCUUUAAAUUGCCCAUCGGGGCCUCGGAUACCUGCUUUAC
B2: H12-H13 SRA, synthetic (structured_RNA)
RNA: GCAGGUAUGUGAUGACAUCAGCCGACGCCUGGCACUGCUGCAGGAACAGUGGGCUGGAGGAAAGUUGUCAAUACCUGU

Key:
[1] = target: T1, Spen RRM domains (Spen RRMs); assay: EMSA
[2] = target: T1, Spen RRM domains (Spen RRMs); assay: EMSA; remark: listed apart in the source

| Binder | binding result [1] | binding result [2] |
| --- | --- | --- |
| B1 | binds |  |
| B2 |  | binds |
